From the supplement of paper PMC9170038

System: MS2 coat protein
Assay: apparent KD of MS2 coat protein; designed switch direction (-1 OFF switch, 1 ON switch): -1; higher = weaker reporter binding
Method in brief: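 Designed RNA switches sharing common flanks were transcribed on Illumina chips by stalled E. coli RNA polymerase. They were titrated with SNAP-549-labelled MS2 coat protein, from 0.7 or 1.5 nM doubling to 3 µM, in Tris-HCl pH 7.5 buffer with KCl, MgCl2, BSA, DTT, tRNA and Tween-20. Titrations ran without input, with 200 uM small-molecule ligand, or with an oligonucleotide input. The apparent KD of each design is the median over its clusters, after curve-fitting of normalised cluster fluorescence.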

[1] = Eterna round: R95, input ligand: FMN 200 uM
[2] = Eterna round: R95, input ligand: microRNA oligo, concentration not stated
[3] = Eterna round: R95, input ligand: none
[4] = input ligand: microRNA oligo, concentration not stated

Row | Sequence | apparent KD of MS2 coat protein [1] [nM] | apparent KD of MS2 coat protein [2] [nM] | apparent KD of MS2 coat protein [3] [nM] | apparent KD of MS2 coat protein (input ligand: FMN 200 uM) [nM] | apparent KD of MS2 coat protein (input ligand: none) [nM] | apparent KD of MS2 coat protein [4] [nM]
1 | AAAAGGCGAGGAUAUACAUGAGGAUCACCCAUGUGAAAGAAAGAAAGAAAGAAGAAAGGUAGAAGGCGCAAAGA [Mine, also!] (puzzle: Exclusion 3) | 83.6 | 42.6 | 67 |  |  | 
2 | UAUUAGCAAGCAAGAUCCCACAUGAGGAUCACCCAUGUGCUCGUCUUAUAAGGUACUGUGACGAGAGUCACGGUACC [Mat - Sensor, turn-off var - Eli Mod - D47] (Eterna round: R97, puzzle: Sensor, turn-off variant 1) |  |  |  | 51.4 | 54.2 | 
3 | AACAAAAGCGUAGGAUAUGACUGGGCUCAUGCCUAACAUAACUACAAACAUGAGGAUCACCCAUGUCAGAAGGACGAAUAAAAU [Isesbequti] (Eterna round: R96, puzzle: Exclusion NG 2) |  |  |  | 87.1 | 72 | 57.5
4 | GGUUGGCGAGGAUAUACAUGAGGAUCACCCAUGUGAGCGAAAAAAGUGAGGAAGAAAAGUAGAAGGCGCUGACG [salish99_ex3_r3_020] (puzzle: Exclusion 3) | 236 | 40.1 | 63.5 |  |  | 
5 | UGAGUGCUGCGAGGAUAUACAUGAGGAUCACCCAUGUUAUCGUGUGAGGCUUUGCCUCACACGAAGUAGAAGGCGCAGUACUCU [JL ENG2 1.11] (Eterna round: R96, puzzle: Exclusion NG 2) |  |  |  | 9.84 | 14.2 | 10.2
6 | GCAGCAUAGUCCAAAUAGGACAUACAUGAGGAUCACCCAUGUCAGGAUAUGGUCUGGAUUACAGGCCAGAAGGGACGUAGCUGC [Eli exng3 - 004] (Eterna round: R96, puzzle: Exclusion NG 3) |  |  |  | 25.9 | 23.6 | 20.9
7 | AAAAUGCAAGGAUAUCGCGAUAAAUACAUGAGGAUCACCCAUGUGAUUACGUGGGCACGGCGAGAAGGUGCUAAAA [Amadius] (puzzle: Exclusion 5) | 119 | 26.1 | 33.8 |  |  | 
8 | AAGUAACAUGAGGAUCACCCAUGUUAGGAUAUCUCGGCCGCGGCAUCGCCGCGAAACCAGAGAAGGAGCGGGUG [Erargeisar] (Eterna round: R97, puzzle: Exclusion 1) |  |  |  | 206 | 160 | 
9 | CCGUGGCAAGGAUAUACAGAGGAGAGGAAGGCAAGAGGUGGACAUGAGGAUCACCCAUGUAGAAGGUGCAGAGC [JR_Exclu2_Sub026] (puzzle: Exclusion 2) | 130 | 124 | 160 |  |  | 
10 | GUGAUCUAUCAUGUAAUCAACAUGAGGAUCACCCAUGUAGACAAGUUUUUUGCUCGUCUGAUAAUAAGAUAGAUCAC [Antenna 16 - Jieux - Sensor, turn-off variant 1] (Eterna round: R97, puzzle: Sensor, turn-off variant 1) |  |  |  | 13.8 | 12.3 | 
11 | GUGCAAUGAGGAUAUACGUAGGUGAACAUCUGUGUGCUCCUACAUGAGGAUCACCCAUGUAGAAGGCAUGUCAC [LRO-Excl2-17] (puzzle: Exclusion 2) |  | 13.1 |  |  |  | 
12 | GUAGAUCGAGUUAGGAUAUGAUUAAAAUUCGGAUAUCAGAAGGAACUUGAGGAUCACCCAAGUAUAGAUGAUUC [JR_BMEx4_Sub057] (Eterna round: R97, puzzle: Brourd's mod of Exclusion 4) |  |  |  | 135 | 29.8 | 
13 | AAAGUGUGAGGAUAUUAGUUGUACGUCAAUAGACGUAUAAGUGAGAAGGCACAUGAGGAUCACCCAUGUUCCUG [Omei Ex4 Mod of Mat's R95 mod of Omei v5] (Eterna round: R97, puzzle: Exclusion 4) |  |  |  | 99.7 | 21.9 | 
14 | AGAGCACAUGAGGAUCACCCAUGUCAGGAUAUCGACUGAACAGCUUCGGCUGUUCAGUCGAGAAGGGACAAUUA [Brourdxlusion 7 - Jieux - Exclusion 1] (Eterna round: R97, puzzle: Exclusion 1) |  |  |  | 19.4 | 35 | 
15 | GGAAAACAUGAGGAUCACCCAUGUGAGGAUAUGCGUACGUUGUCCGUAGGCGACGUGCGCAGAAGGCGCAAGAG [Mat - Mod of JL D89] (puzzle: Exclusion 1) | 57.4 | 48.5 | 58.1 |  |  | 
16 | CAGGCGUCUGUGCGUGGUGACAUGAGGAUCACCCAUGUUUUGCUCGUUUUGUCUUGGGCUCGGCGCCCGGGUUCGGG [-24.5, -48.6, A 9%] (Eterna round: R97, puzzle: Sensor, turn-off variant 1) |  |  |  | 181 | 208 | 
